From the supplement of paper PMC7877785 come the findings set out here.

± gives the uncertainty stated by the source.

The data set is described as follows: self-splicing fitness, log relative to wild type (ln ratio); higher = more splicing; Tetrahymena group I intron in knt gene, E. coli kanamycin selection, DiMSum; sequences stand for … in CUCUCU…GGAGGGAAAAGUUAUCAGGCAUGCACCUGGUAGCUAGUCUUUAAACCAAUAGAUUGCAUCGGUUUAAAAGGCAAGACCGUCAAAUUGCGGGAAAGGGGUCAACAGCCGUUCAGUACCAAGUCUCAGGGGAAACUUUGAGAUGGCCUUGCAAAGGGUAUGGUAAUAAGCUGACGGACAUGGUCCUAACCACGCAGCCAAGUCCUAAGUCAACAGAUCUUCUGUUGAUAUGGAUGCAGUUCACAGACUAAAUGUCGGUCGGGGAAGAUGUAUUCUUCUCAUAAGAUAUAGUCGGACCUCUCCUUAAUGGGAGCUAGCGGAUGAAGUGAUGCAACACUGGAGCCGCUGGGAACUAAUUUGUAUGCGAAAGUAUAUUGAUUAGUUUUGGAGUACUCGUGGUCG
Put shortly: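 DiMSum derived fitness as the error-weighted combination of fold changes across replicates, kanamycin versus no kanamycin, normalised to wild type. E. coli BL21(DE3) held the library, which randomised all eight P1ex-region intron nucleotides within the knt kanamycin-resistance gene on pET-22b(+). Six replicate transformations grew overnight at 37°C or 30°C on LB agar with or without 25 μg/mL kanamycin, also containing 100 μg/mL carbenicillin, 50 μM IPTG and 0.2% rhamnose, and pooled colonies were amplicon-sequenced on an Illumina HiSeq 2500.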

In the case of CCGAAGCAAUAUUACGAUGC, the “self-splicing fitness (ln)” value is, setting by setting: (30 °C) -4.36 ± 0.26; (37 °C) -2.34 ± 0.23.
As to UAAAAGCAAUAUUACGGGGG, the “self-splicing fitness (ln)” value by setting is: (30 °C) -2.62 ± 0.19; (37 °C) -2.43 ± 0.24.
For GUCCAGCAAUAUUACGGUCG the same measures were -0.533 ± 0.071 and -0.131 ± 0.097.
For GGAAAGCAAUAUUACGUAAU the same measures were -1.3 ± 0.07 and -1.23 ± 0.12.
For GGUCAGCAAUAUUACGAUUC, in that order: -0.716 ± 0.079 and -0.325 ± 0.11.
Take GACGAGCAAUAUUACGUUUA: the “self-splicing fitness (ln)” value by setting is: (30 °C) -2.06 ± 0.14; (37 °C) -0.752 ± 0.12.
With AAGGAGCAAUAUUACGACUU, the “self-splicing fitness (ln)” value reads like this: (30 °C) -1.12 ± 0.086; (37 °C) -1.26 ± 0.1.
For GAGGAGCAAUAUUACGGACU the same measures were -1.49 ± 0.14 and -1.22 ± 0.28.
For CAUCAGCAAUAUUACGGUAG the same measures were -0.362 ± 0.075 and 0.051 ± 0.085.
For GCCAAGCAAUAUUACGCUCU the same measures were -0.234 ± 0.1 and -0.0648 ± 0.12.
As for AUGAAGCAAUAUUACGCUAC, the “self-splicing fitness (ln)” value is, setting by setting: (30 °C) -2.06 ± 0.094; (37 °C) -1.86 ± 0.15.
For GCCAAGCAAUAUUACGCGCA the same measures were -0.985 ± 0.12 and 0.097 ± 0.11.
For UCAUAGCAAUAUUACGUUCG, in that order: -1.03 ± 0.098 and -0.686 ± 0.1.
Take AUGUAGCAAUAUUACGGGCA: the “self-splicing fitness (ln)” value reads like this: (30 °C) -0.222 ± 0.11; (37 °C) 0.141 ± 0.1.
Take UCUUAGCAAUAUUACGCCUA: for the setting “37 °C”, the “self-splicing fitness (ln)” value was -2.71 ± 0.41.
Regarding UCGCAGCAAUAUUACGGCAC, the “self-splicing fitness (ln)” value was -1.94 ± 0.34 (30 °C) and -2.67 ± 0.29 (37 °C).
Take AUCGAGCAAUAUUACGGAUA: the “self-splicing fitness (ln)” value by setting is: (30 °C) -3.67 ± 0.33; (37 °C) -1.92 ± 0.25.
For UACUAGCAAUAUUACGGCUG, in that order: -0.825 ± 0.14 and -0.545 ± 0.19.
For GGGAAGCAAUAUUACGAUUA, the “self-splicing fitness (ln)” value (30 °C) is -1.56 ± 0.21 and the “self-splicing fitness (ln)” value (37 °C) was -0.805 ± 0.18.
For the sequence CUGGAGCAAUAUUACGUUGC, the “self-splicing fitness (ln)” value (30 °C) is -3.09 ± 0.33.
Take UUGAAGCAAUAUUACGGUAA: the “self-splicing fitness (ln)” value is, setting by setting: (30 °C) -0.968 ± 0.1; (37 °C) -0.399 ± 0.12.
Regarding CUGGAGCAAUAUUACGCAUC, the “self-splicing fitness (ln)” value (37 °C) was -0.757 ± 0.42.
For GUCUAGCAAUAUUACGUGUC, the “self-splicing fitness (ln)” value runs as follows: (30 °C) -0.8 ± 0.089; (37 °C) -0.0601 ± 0.086.
With UCGUAGCAAUAUUACGCAGU, the “self-splicing fitness (ln)” value was -3.54 ± 0.39 (30 °C) and -2.51 ± 0.28 (37 °C).
AAGAAGCAAUAUUACGCUCG: the “self-splicing fitness (ln)” value is -0.487 ± 0.078 (30 °C) and -0.257 ± 0.12 (37 °C).
For the sequence CUUUAGCAAUAUUACGGGCU, the “self-splicing fitness (ln)” value (37 °C) is -1.66 ± 0.41.
For the sequence UUUAAGCAAUAUUACGUCUU, the “self-splicing fitness (ln)” value (30 °C) is -2.57 ± 0.15 and the “self-splicing fitness (ln)” value (37 °C) was -1.81 ± 0.16.
For ACCGAGCAAUAUUACGGCUU the same measures were -2.63 ± 0.12 and -1.14 ± 0.13.
For UCGGAGCAAUAUUACGUGCC, in that order: -3.26 ± 0.34 and -2.53 ± 0.45.
For CUACAGCAAUAUUACGUCUG, in that order: -1.77 ± 0.1 and -1.45 ± 0.13.
For the sequence CCAGAGCAAUAUUACGCUUG, the “self-splicing fitness (ln)” value runs as follows: (30 °C) -3.27 ± 0.26; (37 °C) -2.93 ± 0.35.
Take AUACAGCAAUAUUACGACCU: the “self-splicing fitness (ln)” value stood at 0.331 ± 0.084 (30 °C) and 0.122 ± 0.094 (37 °C).
For CGGUAGCAAUAUUACGAGAU the same measures were -3.19 ± 0.3 and -2.32 ± 0.28.
As to AGCCAGCAAUAUUACGGUCU, the “self-splicing fitness (ln)” value (30 °C) was -3.08 ± 0.18 and the “self-splicing fitness (ln)” value (37 °C) is -2.51 ± 0.18.
On to UGCUAGCAAUAUUACGGACC, for which the “self-splicing fitness (ln)” value runs as follows: (30 °C) 0.158 ± 0.22; (37 °C) -1.06 ± 0.22.
For AGGAAGCAAUAUUACGAACG, in that order: -1.19 ± 0.14 and -0.0957 ± 0.18.
In the case of CUAUAGCAAUAUUACGAAGA, the “self-splicing fitness (ln)” value (30 °C) was -3.01 ± 0.25.
Turning to GUACAGCAAUAUUACGUCCG, the “self-splicing fitness (ln)” value is -3.2 ± 0.23 (30 °C) and -1.74 ± 0.17 (37 °C).
Regarding UACAAGCAAUAUUACGAGGC, the “self-splicing fitness (ln)” value (30 °C) is -2.4 ± 0.3 and the “self-splicing fitness (ln)” value (37 °C) is -1.84 ± 0.28.
